Experimental data from publication PMC8998617 (2022).

Biological target: recombinant human full-length Tau (2N4R, 441 aa), non-phosphorylated (human, UniProt P10636-8 1-441)
Assay: SPR

Kd: 360 nM
B1: Nup98-FG/FS (full F/S mutant of Nup98-FG) (domain or fragment)
chain: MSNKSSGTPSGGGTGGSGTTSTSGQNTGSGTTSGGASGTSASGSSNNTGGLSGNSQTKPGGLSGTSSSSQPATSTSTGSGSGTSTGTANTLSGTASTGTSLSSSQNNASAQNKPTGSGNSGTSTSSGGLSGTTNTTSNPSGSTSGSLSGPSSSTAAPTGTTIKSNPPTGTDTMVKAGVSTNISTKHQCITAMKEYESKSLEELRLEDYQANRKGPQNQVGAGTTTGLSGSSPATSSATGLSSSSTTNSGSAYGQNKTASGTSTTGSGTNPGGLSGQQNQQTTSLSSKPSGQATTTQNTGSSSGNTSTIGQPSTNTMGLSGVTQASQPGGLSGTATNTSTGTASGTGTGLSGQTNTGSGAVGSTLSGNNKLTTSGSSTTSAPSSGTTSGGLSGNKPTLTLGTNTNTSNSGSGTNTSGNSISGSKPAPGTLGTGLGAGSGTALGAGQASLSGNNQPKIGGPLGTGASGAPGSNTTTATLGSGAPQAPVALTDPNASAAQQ
